Patent US20250297004A1, “NECTIN-4 BINDING AGENTS” (INNATE PHARMA, priority 2022, published 2025)
Positions count from the first letter of the chain named.

T1: human Nectin-4 Mutant 3 (A76S/Q77R/E78A/S91N) (Homo sapiens, UniProt Q96NY8, A76S/E78A/Q77R/S91N)
T1 construct: expressed in transfected cells; host or cells: HEK293T
T1 sequence (Q96NY8 32-510 A76S/Q77R/E78A/S91N): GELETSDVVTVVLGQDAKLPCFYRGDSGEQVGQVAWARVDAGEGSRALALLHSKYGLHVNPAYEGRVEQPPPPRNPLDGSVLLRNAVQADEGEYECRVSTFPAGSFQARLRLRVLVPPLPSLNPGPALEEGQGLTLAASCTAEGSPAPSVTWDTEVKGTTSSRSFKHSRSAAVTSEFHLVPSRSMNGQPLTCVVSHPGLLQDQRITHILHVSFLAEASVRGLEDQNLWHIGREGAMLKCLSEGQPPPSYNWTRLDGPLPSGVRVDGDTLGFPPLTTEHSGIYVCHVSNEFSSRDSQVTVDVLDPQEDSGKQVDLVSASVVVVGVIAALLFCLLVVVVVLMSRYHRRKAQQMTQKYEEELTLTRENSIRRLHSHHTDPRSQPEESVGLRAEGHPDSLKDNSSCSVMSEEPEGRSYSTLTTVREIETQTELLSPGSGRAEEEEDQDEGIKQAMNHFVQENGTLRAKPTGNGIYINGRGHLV

T2: human Nectin-4 Mutant 4 (A72P/G73N/G75S) (Homo sapiens, UniProt Q96NY8, A72P/G73N/G75S)
T2 construct: expressed in transfected cells; host or cells: HEK293T
T2 sequence (Q96NY8 32-510 A72P/G73N/G75S): T1 sequence (Q96NY8 32-510 A76S/Q77R/E78A/S91N) with A41P, G42N, G44S, S45A, R46Q, A47E, N60S

T3: human Nectin-4 Mutant 7 (S195A/K197T/S199A) (Homo sapiens, UniProt Q96NY8, K197T/S195A/S199A)
T3 construct: expressed in transfected cells; host or cells: HEK293T
T3 sequence (Q96NY8 32-510 S195A/K197T/S199A): T1 sequence (Q96NY8 32-510 A76S/Q77R/E78A/S91N) with S45A, R46Q, A47E, N60S, S164A, K166T, S168A

T4: human Nectin-4 Mutant 8 (T190A/T191Q/S193A) (Homo sapiens, UniProt Q96NY8, S193A/T190A/T191Q)
T4 construct: expressed in transfected cells; host or cells: HEK293T
T4 sequence (Q96NY8 32-510 T190A/T191Q/S193A): T1 sequence (Q96NY8 32-510 A76S/Q77R/E78A/S91N) with S45A, R46Q, A47E, N60S, T159A, T160Q, S162A

B1: 5E7 (antibody, V domains shown)
VH: QVQLQQPGAELVKPGASVKLSCKASGYIFTSYWMHWVKQRPGQGLEWIGEIDPSDSYTNYNQKFKGKATLTLDKSSSTTYMQLSSLTSEDSAVYYCVRGYGNYGDYWGQGTTLTVSSASTKGP
VL: DVVMTQAAFSNPVTLGTSASISCRSSKSLLHSNGITYLYWYLQKPGQSPQLLIYQMSNLASGVPDRFSSSGSGTDFTLRISRVEAEDVGVYYCAQNLELPWTFGGGTKLEIKRTVAAP
B2: N41 (antibody, V domains shown)
VH: QVQLKQSGPGLVQPSQSLSITCTVSGFSLTNYGVHWVRQSPGKGLEWLGVIWSGGSTDYNAAFISRLSISKDTSKSQVFFKMNSLQADDTAIYYCARELIHAMDNWGQGTSVTVSS
VL: DIQMTQSPASLSVSVGETVTITCRASENIYSNLAWYQQKQGNSPQLLVFAATNLADGVPSRFSGSGSGTQYSLKINSLQSEDFGTYYCQHFWGTPTFGGGTKLEIK

Key:
Test in all cases: Epitope mapping using Nectin-4 point mutants
Assay type in all cases: binding
[1] = molecular target: T1, human Nectin-4 Mutant 3 (A76S/Q77R/E78A/S91N)
Description: (§1) Combined with the published structures of the Nectin-4 domains, Nectin-4 mutations at surface exposed amino acids residues were designed. Nectin-4 domain structure was modelled based on Protein Data Bank reference: 4FRW (domains V et C1). Human Nectin-4 used was NCBI Reference Sequence: NP_112178.2, mouse Nectin-4 used was NCBI Reference Sequence: AAL79833.1, cynomolgus Nectin-4 used was NCBI Reference Sequence: XP_005541277.1, rat Nectin-4 used was NCBI Reference Sequence: NP_001102546.1. The cells expressing the Nectin-4 mutants are then be used for testing anti-Nectin-4 antibodies for loss of binding to different Nectin-4 mutants to identify antibodies that bind to the same site on Nectin-4. […] FIGS. 8A and 8B show different view of a molecular model of the human Nectin-4 protein, indicating the position of substituted residues in mutants 1, 2, 3, 4, 5, 6, 7, 8 and 9.
(§2) Nectin-4 mutants were generated by PCR. The sequences amplified were run on agarose gel and purified using the Macherey Nagel PCR Clean-Up Gel Extraction kit. The purified PCR products generated for each mutant were then ligated into an expression vector, with the ClonTech InFusion system. The vectors containing the mutated sequences were prepared as Miniprep and sequenced. After sequencing, the vectors containing the mutated sequences were prepared as Midiprep using the Promega PureYield™ Plasmid Midiprep System. HEK293T cells were grown in DMEM medium (Invitrogen), transfected with vectors using Invitrogen's Lipofectamine 2000 and incubated at 37° C. in a CO2 incubator for 48 hours prior to testing for transgene expression. The targeted amino acid mutations are shown in Table 13 below, listing the residue present in wild-type Nectin-4/position of residue/residue present in mutant Nectin-4, with position reference being to the Nectin-4 protein with leader peptide shown in SEQ ID NO: 1.
(§3) (+) means that antibodies-Nectin-4 association occurs.

[2] = molecular target: T2, human Nectin-4 Mutant 4 (A72P/G73N/G75S)
Description: as §1, §2, §3

[3] = molecular target: T3, human Nectin-4 Mutant 7 (S195A/K197T/S199A)
Description: as §1, §2, §3

[4] = molecular target: T4, human Nectin-4 Mutant 8 (T190A/T191Q/S193A)
Description: as §1, §2, §3

Molecule | association with Mutant 3 [1] | association with Mutant 4 [2] | association with Mutant 7 [3] | association with Mutant 8 [4]
B1 | + | + | − | +
B2 | + | + | + | +
